Measurements published in the supplement of paper PMC9170038.

What was measured:
[1] = system: MS2 coat protein; assay: apparent KD of MS2 coat protein, switch ON state; designed switch direction (-1 OFF switch, 1 ON switch): -1; higher = weaker reporter binding; settings: FMN input: 0 or 200 uM; Eterna round: R93 (includes R88 designs)
How it was run: (§1)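 Illumina sequencing clusters were used for on-chip transcription of designed RNA switches. Titration with SNAP-549-labelled MS2 coat protein followed, in twofold steps from 0.7 or 1.5 nM to 3 µM in 100 mM Tris-HCl pH 7.5, 80 mM KCl, 4 mM MgCl2, without or with constant ligand. Apparent KD is each design's median of fits to normalised cluster binding curves.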

[2] = system: MS2 coat protein; assay: apparent KD of MS2 coat protein, switch OFF state (with FMN for OFF switches, without FMN for ON switches); designed switch direction (-1 OFF switch, 1 ON switch): -1; higher = weaker reporter binding; settings: FMN input: 0 or 200 uM; Eterna round: R93 (includes R88 designs)
How it was run: as §1

Sequence	apparent KD of MS2 coat protein [1] [nM]	apparent KD of MS2 coat protein [2] [nM]
AGAAAGUCAGGAUAUAUGCGAAAAAUAAAAAAAAUAAAAACAUAGAAGGGACAUGAGGAUCACCCAUGUUAAGA [Mat - Exclusion 4 - Mayanna - D136]	50	32
AGUCAUACAGGAUAUACAUGAGGAUCACCCAUGUAUAUCCAAAAAAAAAAAUCCUCAUGUAGAAGGGUAUGACA [EX3 205: Super Stable 5]	17.1	18.7
AAAACUGGAGGAUAUACAUGAGGAUCACCCAUGUGUGGAUGAGCUGAGACGGCAUCACGUAGAAGGCCACAAAA [Gilly Gone Silly 39 - Jieux - Exclusion 3]	33.2	44
AAAAAGUGAGGAUAUACAUGAGGAUCACCCAUGUGAUAAAAAAAAAGGGUGGAAGAAAGUAGAAGGCACCAAAA [Ex 3 May 49]	108	77.5
AAAUAGCAAGGAUAUACAUGAGGAUCACCCAUGUAAGGAUGGUAAGUAUUAGAAGAAAGUAGAAGGUGCAAAUA [Ex 3 Tesla 5]	33.6	55.3
CUCAAGUAAGGAUAUUUAUGAAAUGAAGUGAAAGAAAAGAAAAAGAAGGUACAUGAGGAUCACCCAUGUUAGAA [EteRNA is fun!]	32.8	19.6
CUCAUGUCAGGAUAUGUAGCAUGAUACGAAAGUAUCAUGCUACAGAAGGGACAUGAGGAUCACCCAUGUGAUCA [Ex4: 941]	31.7	25.5
AAGAAGUCAGGAUAUGCUGCUCGUCACAAAAGUGAUGAGUAGCAGAAGGGACAUGAGGAUCACCCAUGUAAACA [Opal 34]	37.6	47.2
AAAAAAUCAGGAUAUACAUGAGGAUCACCCAUGUGAAAGAACGAUUAACGACCAGCAAGUAGAAGGGAUAAAAA [Ruby 81]	18.1	19.7
GGUUGGCGAGGAUAUACAUGAGGAUCACCCAUGUGAGAGAAAAAAGUGAGAAAGAAAAGUAGAAGGCGCUGACA [salish99-ex3-03]	58.8	283
GAAAUACAUGAGGAUCACCCAUGUGAGGAUAUGCUAUGGAAAUAAAAAAUAAAACAUAGCAGAAGGUACAAAAG [Mat - Exclusion 1 - Eli mod - D43]	21.8	54.6
AAAAAGCGAGGAUAUACAUAGCUAAGACAAAUAAGCAAAAAACAUGAGGAUCACCCAUGUAGAAGGCGCAAAAA [Exclusion2-01]	19.6	15.4
AAGAACGGAGGAUAUACUAAAGAAAUGAAAAGAAAUAAAGAACAUGAGGAUCACCCAUGUAGAAGGCCGAAGAA [Sehebre]	17	23.7
AAAAAGUCAGGAUAUACAAAAGUGCGAAAGCACAAAAUGGGACAUGAGGAUCACCCAUGUAGAAGGGACAAGAA [JL In the Red 01 (Mod)]	148	472
GAGAAGUGAGGAUAUCGAAGACAGACGAAAAGUCUGUCAAACGAGAAGGCACAUGAGGAUCACCCAUGUGGGAA [Mat - Exaclusion 4 - Eli mod - D76]	75.8	140
AAAAAACAUGAGGAUCACCCAUGUAAGGAUAUGACUUAAAUAAAGAAAGAAGAAAUAGUCAGAAGGUACAAAUA [Disincluded (MS2 Riboswitches - States energetically close)]	20.4	31
AAAAAGGGAGGAUAUACAGGAGGUCAAAAAAAAAAAAAAAAACAUGAGGAUCACCCAUGUAGAAGGCUUAAAAA [Ecls2-III]	26.7	27.3
AUCAUGUAAGGAUAUGACUACAUAAAAAAAAAAAAAUGUAGUCAGAAGGUACAUGAGGAUCACCCAUGUACAAA [Mod of Brourd]	27.6	29.4
UGCAUGUAAGGAUAUGCAACCGGCGCUCAUUAACCGGUCAAGCAGAAGGUACAUGAGGAUCACCCAUGUGUCCG [Esteleus]	17.2	52.2
AAAUUGUCAGGAUAUCCUAUAACUCUAAAAUAGAGGAGAUAGGAGAAGGGACAUGAGGAUCACCCAUGUAAAAC [May 86]	43.7	61.7
GCUGUGCAAGGAUAUACAUGAGGAUCACCCAUGUGAGAGAAAAAAGUGAGAAAGAAAAGUAGAAGGUGCGUAGG [salish99-ex3-99]	36.5	43.3
AAGAAACAUGAGGAUCACCCAUGUGAGGAUAUACAAAAGAAAAGAAAAGAAAGAAGAAGUAGAAGGUACAAAGG [Merenre Nemtyemsaf II]	23.7	26.6
